Laboratory results from the supplement of paper PMC10724198.
± gives the standard deviation of the averaged measurements.

Test system: Saccharomyces cerevisiae
Experiment: protein stability index of tFT-peptide fusion (C-terminal peptide) (PSI (0-1 scale)); higher = more stable (slower turnover)
Details: genetic background: wild type; temperature: 30 C
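Also: PSI is a weighted mean of sequencing reads over stability bins, variants kept only with over 10 reads, mCherry proximal and sfGFP distal, peptide attached via GGGS linker.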

| Sequence | protein stability index |
| --- | --- |
| HSCLVRSDPPPS | 0.704 ± 0.12 |
| IMGGGGEGGINC | 0.698 ± 0.019 |
| LQAKRTAGPGEH | 0.68423 ± 0.00012 |
| FAGLVSPASLHP | 0.686 ± 0.026 |
| TRPHASPPPPPP | 0.695 ± 0.024 |
| ILCASDLNRPCL | 0.697 ± 0.04 |
| LLTGKTVPKDST | 0.705 ± 0.016 |
| RAVPLLPRVLFW | 0.6819 ± 0.0047 |
| PPGPSVPPHRPP | 0.754 ± 0.049 |
| PHPSATPTPVPP | 0.7001 ± 0.0017 |
| ARLSNLPPSPPR | 0.678 ± 0.032 |
| PSPHRELNESHE | 0.674 ± 0.045 |
| GWGPSSAGGAGG | 0.752 ± 0.12 |
| VGGTSWGIEKSS | 0.649 ± 0.052 |
| SPPPLPPPTLPT | 0.791 ± 0.084 |
| GESRDEGRGVRA | 0.638 ± 0.069 |
| PHTPSRPLSPAP | 0.713 ± 0.063 |
| ALGRTPYSGCFL | 0.631 ± 0.021 |
| RFGLRVLGGACR | 0.591 ± 0.071 |
| SKQGNKADGCAK | 0.603 ± 0.054 |
| DDSVGKLFYCLF | 0.7 ± 0.03 |
| SGVKKGRSEGKR | 0.629 ± 0.051 |
| KALGLRDHAILD | 0.6583 ± 0.004 |
| LRRLSSIGWSRI | 0.754 ± 0.14 |
| AHSAPGHPHDFP | 0.664 ± 0.046 |

| Sequence | protein stability index |
| --- | --- |
| FRKALRIQSVGS | 0.6926 ± 0.0019 |
| PARTSAPPSPLI | 0.686 ± 0.0075 |
| AGKVCGVGRLSI | 0.65 ± 0.033 |
| PPPHPHLPPHSD | 0.69 ± 0.06 |
| GLALSPFPTLSL | 0.64677 ± 0.00031 |
| PHTEPVIVACSG | 0.601 ± 0.033 |
| VFTALALISYMQ | 0.5917 ± 0.0022 |
| APPPLPSLPPSP | 0.701 ± 0.017 |
| PPPPPSVTRTQP | 0.649 ± 0.043 |
| FRSRFGPCLRSV | 0.649 ± 0.027 |
| RVGLRGGCGSNG | 0.725 ± 0.029 |
| FYRPNLLNAGRL | 0.715 ± 0.023 |
| RACLKSRCIAMG | 0.604 ± 0.065 |
| GGGGGSSWVGYG | 0.8981 ± 0.0027 |
| FLDTSSYFMFAS | 0.7123 ± 0.007 |
| GRSFRQWRDSGS | 0.718 ± 0.066 |
| PLPPRPAPPSSS | 0.681 ± 0.015 |
| LSSFFLLPCLSS | 0.576 ± 0.021 |
| RLFLSFVDRRSL | 0.629 ± 0.06 |
| KKTSKTERDQKE | 0.639 ± 0.015 |
| PLRSFSLRPFPL | 0.775 ± 0.06 |
| QTRQPKRSDEEK | 0.686 ± 0.014 |
| FFDFCACICTFF | 0.655 ± 0.045 |
| GLSFITAGGLVF | 0.688 ± 0.052 |
| EARMGGGRCGTG | 0.684 ± 0.008 |

| Sequence | protein stability index |
| --- | --- |
| ELINQENQPAYE | 0.671 ± 0.038 |
| PLLGLFTRYFDT | 0.7 ± 0.088 |
| KRRAERKKRSKG | 0.6731 ± 0.006 |
| TLTHKSVRLVVK | 0.57119 ± 0.00034 |
| LWCCVFGLPSRG | 0.696 ± 0.072 |
| PPVSPFPVLQGR | 0.652 ± 0.048 |
| LPSPPPSSPLPP | 0.56 ± 0.048 |
| CCLSISSSLLDL | 0.675 ± 0.13 |
| KWGVWLWVGGGG | 0.763 ± 0.056 |
| WGMVFQVFRRRN | 0.582 ± 0.018 |
| PPPARSPLPLPP | 0.742 ± 0.018 |
| SVSPPLPPSSIA | 0.673 ± 0.021 |
| QKKKKKRNDKTQ | 0.71 ± 0.049 |
| FPGLHVNHPAWP | 0.688 ± 0.027 |
| QKKKHRTTGKTT | 0.655 ± 0.035 |
| VQEEGYYLHSSL | 0.699 ± 0.021 |
| PPPPPPPPPHSP | 0.769 ± 0.01 |
| AGGPARWCLEVG | 0.7 ± 0.015 |
| SYVLLLYTGCRM | 0.585 ± 0.02 |
| GGGLWLYKKLVF | 0.682 ± 0.13 |
| TSETLLTLSTLT | 0.669 ± 0.04 |
| LWKVVAPRDESP | 0.67 ± 0.023 |
| GKKEGREAGDRG | 0.691 ± 0.092 |
